These are literature values, as cited in publication PMC3460238.

Like-named read-outs stand apart in the source and are kept apart here.

For data set [1], the target named is C3b (Homo sapiens) (UniProt P01024).
Data set [2] shares this target. This is another data set of the same source.

Chain of C3b (Homo sapiens) (P01024 23-667, chain 1 of 2): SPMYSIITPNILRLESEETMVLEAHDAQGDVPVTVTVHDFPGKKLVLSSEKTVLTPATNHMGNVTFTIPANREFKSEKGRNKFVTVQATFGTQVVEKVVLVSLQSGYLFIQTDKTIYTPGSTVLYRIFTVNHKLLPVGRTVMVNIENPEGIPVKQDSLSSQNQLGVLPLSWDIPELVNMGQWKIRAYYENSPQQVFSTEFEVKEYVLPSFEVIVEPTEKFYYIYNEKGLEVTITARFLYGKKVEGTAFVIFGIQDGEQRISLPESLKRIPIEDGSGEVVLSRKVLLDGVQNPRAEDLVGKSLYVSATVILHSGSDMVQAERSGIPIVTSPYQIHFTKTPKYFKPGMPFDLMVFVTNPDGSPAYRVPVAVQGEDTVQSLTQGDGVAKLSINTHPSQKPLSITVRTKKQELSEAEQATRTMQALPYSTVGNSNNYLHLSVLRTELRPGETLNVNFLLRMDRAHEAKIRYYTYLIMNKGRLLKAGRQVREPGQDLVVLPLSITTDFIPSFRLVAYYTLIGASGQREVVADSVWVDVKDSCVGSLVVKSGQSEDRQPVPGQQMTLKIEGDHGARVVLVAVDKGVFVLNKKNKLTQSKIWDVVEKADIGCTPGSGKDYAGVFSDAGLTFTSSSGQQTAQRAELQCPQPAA
Chain of C3b (Homo sapiens) (P01024 749-1663, chain 2 of 2): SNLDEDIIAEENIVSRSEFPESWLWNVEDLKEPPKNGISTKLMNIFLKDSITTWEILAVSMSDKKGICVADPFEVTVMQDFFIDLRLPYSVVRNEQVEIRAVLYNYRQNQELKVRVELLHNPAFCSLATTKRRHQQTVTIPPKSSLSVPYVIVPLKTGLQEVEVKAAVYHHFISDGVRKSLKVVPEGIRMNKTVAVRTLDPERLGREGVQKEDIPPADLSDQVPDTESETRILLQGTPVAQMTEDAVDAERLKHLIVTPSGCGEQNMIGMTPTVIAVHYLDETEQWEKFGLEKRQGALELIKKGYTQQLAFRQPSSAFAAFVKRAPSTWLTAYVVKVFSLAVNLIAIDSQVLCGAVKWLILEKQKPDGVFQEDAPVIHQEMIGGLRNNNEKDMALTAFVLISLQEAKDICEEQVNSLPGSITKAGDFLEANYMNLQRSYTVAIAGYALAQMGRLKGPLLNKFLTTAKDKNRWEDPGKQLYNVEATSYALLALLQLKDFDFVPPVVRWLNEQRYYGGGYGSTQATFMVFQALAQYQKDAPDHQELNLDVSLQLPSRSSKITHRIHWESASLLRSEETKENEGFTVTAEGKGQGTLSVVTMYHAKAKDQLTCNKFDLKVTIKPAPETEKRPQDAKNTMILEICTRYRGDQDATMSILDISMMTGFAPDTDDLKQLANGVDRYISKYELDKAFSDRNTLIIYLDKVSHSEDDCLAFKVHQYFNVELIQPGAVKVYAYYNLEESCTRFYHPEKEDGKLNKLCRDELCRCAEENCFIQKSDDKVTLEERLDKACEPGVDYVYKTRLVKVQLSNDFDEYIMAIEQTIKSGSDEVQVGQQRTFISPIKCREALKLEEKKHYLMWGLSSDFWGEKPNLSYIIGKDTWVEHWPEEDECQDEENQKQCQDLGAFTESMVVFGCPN
Chain of Factor H (62V) (P08603 19-1231): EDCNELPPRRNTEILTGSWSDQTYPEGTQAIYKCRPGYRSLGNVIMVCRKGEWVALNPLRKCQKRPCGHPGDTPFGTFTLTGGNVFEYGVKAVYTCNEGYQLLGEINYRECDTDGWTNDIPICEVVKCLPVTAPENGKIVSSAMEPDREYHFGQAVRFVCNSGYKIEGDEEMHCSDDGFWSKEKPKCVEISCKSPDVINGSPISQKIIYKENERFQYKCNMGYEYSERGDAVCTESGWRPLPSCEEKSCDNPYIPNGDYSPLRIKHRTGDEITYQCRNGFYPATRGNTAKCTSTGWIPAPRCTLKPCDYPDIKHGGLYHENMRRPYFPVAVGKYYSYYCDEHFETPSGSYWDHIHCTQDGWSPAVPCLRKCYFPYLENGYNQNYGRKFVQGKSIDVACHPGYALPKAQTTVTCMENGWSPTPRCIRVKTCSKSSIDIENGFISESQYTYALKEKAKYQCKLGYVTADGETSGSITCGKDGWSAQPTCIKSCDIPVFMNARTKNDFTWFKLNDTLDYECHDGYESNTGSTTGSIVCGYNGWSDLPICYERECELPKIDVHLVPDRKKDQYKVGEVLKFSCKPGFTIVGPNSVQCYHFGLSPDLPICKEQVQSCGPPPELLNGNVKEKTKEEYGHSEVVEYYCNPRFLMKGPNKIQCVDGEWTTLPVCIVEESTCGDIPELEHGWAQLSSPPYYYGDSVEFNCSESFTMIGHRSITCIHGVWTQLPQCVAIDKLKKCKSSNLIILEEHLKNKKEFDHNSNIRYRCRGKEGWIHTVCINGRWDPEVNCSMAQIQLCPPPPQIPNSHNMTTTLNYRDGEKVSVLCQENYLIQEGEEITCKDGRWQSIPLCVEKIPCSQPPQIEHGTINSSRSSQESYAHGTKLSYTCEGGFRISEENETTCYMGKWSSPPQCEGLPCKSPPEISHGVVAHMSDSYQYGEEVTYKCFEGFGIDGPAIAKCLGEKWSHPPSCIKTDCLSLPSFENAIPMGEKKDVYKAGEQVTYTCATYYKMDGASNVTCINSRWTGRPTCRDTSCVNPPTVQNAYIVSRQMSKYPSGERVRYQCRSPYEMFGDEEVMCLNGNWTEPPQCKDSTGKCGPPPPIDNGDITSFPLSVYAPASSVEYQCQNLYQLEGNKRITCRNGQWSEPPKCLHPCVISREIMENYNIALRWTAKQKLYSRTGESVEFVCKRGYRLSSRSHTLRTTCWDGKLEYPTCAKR

With Factor H (62I) (from UniProt P08603), the Kd with C3b (Homo sapiens) [1] was 1 µM.
In the case of Factor H (62V) (from UniProt P08603), the equilibrium dissociation constant (Kd) with C3b (Homo sapiens) [2] was 1.3 µM.
